Measurements: paper PMC11739564, “Structure and function of a β-1,2-galactosidase from Bacteroides xylanisolvens, an intestinal bacterium” (Communications Biology, 2025)
Values belong to the molecule of their own block, whether it stands above or below them.

How the values were obtained:
[1] = biological target: Bxy_22780 E350G mutant (nucleophile mutant) (Bacteroides xylanisolvens); assay: crystal structure; E350G mutant, ligand-free; 10–11 mg/ml in 50 mM MOPS (pH 7.5), 300 mM NaCl; reservoir 0.2 M sodium citrate tribasic dihydrate, 20% PEG 3350, 100 mM bis–Tris propane (pH 7.5); 20 °C; oligomeric state from PISA server analysis of the crystal structure
[2] = biological target: Bxy_22780 (GH35 β-1,2-galactosidase from Bacteroides xylanisolvens), wild type (Bacteroides xylanisolvens); assay: crystal structure; WT enzyme co-crystallised with 20 mM galactose or MeβGal; reservoir 0.35 M potassium thiocyanate, 12% PEG 3350; 20 °C; oligomeric state from PISA server analysis of the crystal structures
[3] = substrate: C[C@H]1O[C@@H](Oc2ccc([N+](=O)[O-])cc2)[C@H](O)[C@@H](O)[C@H]1O; assay: hydrolysis kinetics (read-out for this constant not clearly told); format: biochemical, Bacteroides xylanisolvens; details: kinetic assays at pH 7.5, 30 °C
Text: hydrolysis kinetics (read-out for this constant not clearly told) on Bxy_22780

purified protein = substrate: O=[N+]([O-])c1ccc(O[C@@H]2O[C@H](CO)[C@H](O)[C@H](O)[C@H]2O)cc1; assay: purified protein; details: hydrolysis, kinetic assays at pH 7.5, 30 °C

- stoichiometry N [1]: 4
Molecule: Bxy_22780 E350G mutant (nucleophile mutant) (enzyme)

- stoichiometry N [2]: 4
Molecule: Bxy_22780 (GH35 β-1,2-galactosidase from Bacteroides xylanisolvens), wild type (enzyme)

B1: Bxy_22780 (Bacteroides xylanisolvens XB1A) (protein)
chain: RPPMYTSTNTEVPSRLVKNEHGSWQLIVNGKPFIMLAGELHNSSASTTEYLNSLWTSLKTLNLNTVLAPIAWEQFEPQEGIFDYTLINNMIDGARKNGFKLSILWFGSWKNGESSYAPTWVKEDTKRFFRVKSVEGKEIETISPFCENAMKADAKAFKTLVEHIKKVDQATGTVIALQPENEVGIFQGMDYSKASLAAYEQEVPQALIQYMKKNRKNLRKELLSVWEENGARTSGAWKTVFGDNAWSKSFYTTWQYATYIDFISAGAKEIYPLPTFCNCWLVQKPDDMPGVYPNGGPVSRVMDIWKAAAPHIDVLAPDIYLSDFKNIVADYHRADNPLLIPEAVMKPANAFWAFGEHSALCYSPFGIEDGADNFVFAQSYKVLNELIPLISEHQGSDRMIGVMKMPGESERTVTMGDYQLCIKYDAEDAYGLIIQTGKNEFVVAGINFKVYFTSTDKKKTGYIKQVWEGGYDTDGEWKATRLLNGDETYHNAVLIAKGRRTFTSEKSNNYNADHSDEIFVYSPTSYQAVWSPGIYRVTTYLR
notes: N-terminal signal peptide (22 residues, counted with the 14 upstream residues) removed; C-terminal His6-tag (pET30a), E. coli BL21(DE3); homotetramer, D494 of a neighbouring subunit contacts subsite -1
- Km [3]: 7.95 ± 0.46 mM
- Vmax [3]: 14 µmol/min/mg
- Vmax/Km [3]: 1760 µL/min/mg
- Km (purified protein): 3.49 ± 0.53 mM
- Vmax (purified protein): 21.2 µmol/min/mg
- Vmax/Km (purified protein): 6080 µL/min/mg
